The data set concerns the molecule itself. Put plainly: SEC; lysates of control and 2-BP-treated primary hippocampal neurons; fifteen fractions immunoblotted for gephyrin and PSD-95; reference proteins for size.

Several values for one entry are separate records, joined by “and”; a condition that tells them apart may be missing. Equal values may be shown once.

B1: gephyrin, endogenous in primary hippocampal neurons (natural protein, UniProt Q8BUV3 1-769, looked up)
chain: MATEGMILTNHDHQIRVGVLTVSDSCFRNLAEDRSGINLKDLVQDPSLLGGTISAYKIVPDEIEEIKETLIDWCDEKELNLILTTGGTGFAPRDVTPEATKEVIEREAPGMALAMLMGSLNVTPLGMLSRPVCGIRGKTLIINLPGSKKGSQECFQFILPALPHAIDLLRDAIVKVKEVHDELEDLPSPPPPLSPPPTTSPHKQTEDKGVQCEEEEEEKKDSGVASTEDSSSSHITAAALAAKIPDSIISRGVQVLPRDTASLSTTPSESPRAQATSRLSTASCPTPKQIRRPDESKGVASRVGSLKARLPSCSSTYSVSEVQSRCSSKENILRASHSAVDITKVARRHRMSPFPLTSMDKAFITVLEMTPVLGTEIINYRDGMGRVLAQDVYAKDNLPPFPASVKDGYAVRAADGPGDRFIIGESQAGEQPTQTVMPGQVMRVTTGAPIPCGADAVVQVEDTELIRESDDGTEELEVRILVQARPGQDIRPIGHDIKRGECVLAKGTHMGPSEIGLLATVGVTEVEVNKFPVVAVMSTGNELLNPEDDLLPGKIRDSNRSTLLATIQEHGYPTINLGIVGDNPDDLLNALNEGISRADVIITSGGVSMGEKDYLKQVLDIDLHAQIHFGRVFMKPGLPTTFATLDIDGVRKIIFALPGNPVSAVVTCNLFVVPALRKMQGILDPRPTIIKARLSCDVKLDPRPEYHRCILTWHHQEPLPWAQSTGNQMSSRLMSMRSANGLLMLPPKTEQYVELHKGEVVDVMVIGRL
notes: gephyrin, endogenous; A fraction of it is palmitoylated on Cys212 and Cys284 (7.5% in mouse brain); also called native neuronal gephyrin; gephyrin (83 kDa); source: endogenous, lysates of primary hippocampal neurons (control and 2-BP-treated)
In the case of B1, the “stoichiometry N” value was 6 and 9.

(Values after PMC4099074, “Palmitoylation of Gephyrin Controls Receptor Clustering and Plasticity of GABAergic Synapses” (PLoS Biology, 2014).)
